Measured values taken from patent US6838262.

Target: human RANK, full length, expressed in or on cells (human) (UniProt Q9Y6Q6)
Experiment: cell-based or functional assay

Sequence of UniProt Q9Y6Q6 (Q9Y6Q6 26-616): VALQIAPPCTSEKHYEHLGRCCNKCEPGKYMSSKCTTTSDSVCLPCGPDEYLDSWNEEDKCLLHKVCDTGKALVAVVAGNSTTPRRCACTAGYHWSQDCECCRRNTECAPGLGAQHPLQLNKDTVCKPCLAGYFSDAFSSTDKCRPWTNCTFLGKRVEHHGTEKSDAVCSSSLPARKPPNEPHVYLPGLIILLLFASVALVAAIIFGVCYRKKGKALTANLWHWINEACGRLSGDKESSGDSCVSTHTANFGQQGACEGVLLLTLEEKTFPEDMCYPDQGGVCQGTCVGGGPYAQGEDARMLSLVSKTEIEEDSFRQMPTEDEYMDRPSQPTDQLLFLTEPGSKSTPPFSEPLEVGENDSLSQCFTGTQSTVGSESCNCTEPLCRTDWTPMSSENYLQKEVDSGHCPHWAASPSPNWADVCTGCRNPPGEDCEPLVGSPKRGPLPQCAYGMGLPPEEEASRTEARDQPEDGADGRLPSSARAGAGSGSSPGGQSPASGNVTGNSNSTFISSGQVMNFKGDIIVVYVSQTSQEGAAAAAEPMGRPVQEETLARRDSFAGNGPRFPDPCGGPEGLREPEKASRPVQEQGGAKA

RANKL as added to human dendritic cell cultures (Example 13; species and construct not stated) (ligand)
allo-stimulatory capacity of CD1a+ DC in a mixed lymphocyte reaction (MLR): > 10 fold
